Experimental data taken from article PMC4313621, “Hydrophobic mismatch sorts SNARE proteins into distinct membrane domains” (Nature Communications, 2015).
Ends that are not written are not given here.

Target: the molecule itself
Experiment: FRET or BRET; donor- (Rhodamine Red) and acceptor- (Atto647N) labelled peptides reconstituted together in 100 nm LUVs of C14:1, C16:1, C18:1 or C20:1 PC, without or with 30 mol% cholesterol; protein-to-lipid 1:1000; 50 mM HEPES, 150 mM KCl, pH 7.4

B1: Syntaxin 4 TMD (residues 262-297; sx-4TM) (peptide, UniProt Q12846 262-297, looked up)
peptide: ALENQKKARKKKVLIAICVSITVVLLAVIIGVTVVG
modifications: also: N-terminus: Rhodamine Red or Atto647N
notes: syntaxin 4 transmembrane domain with juxtamembrane stretch, Homo sapiens, residues 262-297; also called syntaxin 4 truncation mutant; source: synthetic peptide (Fmoc solid phase synthesis)
B1: binds.
